{"source": "the supplement of paper PMC10567573", "parents": {"B1": {"name": "TRAF3IP2 (parent)", "chain": "KEHVPTWLQNTHVYSWPKNKKNIL"}}}
{"variants_of": "B1", "experiment": "protein stability index of a GFP-peptide fusion (GPS, HEK-293T) (PSI 1-6); higher = more stable", "details": "c terminus: a fixed tail appended"}
{"variant": "KEHVPTWLQNTHVYSWPKPKKNIL", "protein stability index": 2.43}
{"variant": "KEHVPTWLQNTHVYSWPKNKKNIN", "protein stability index": 3.08}
{"variant": "KEHVPTWLQNTHVYIWPKNKKNIL", "protein stability index": 1.7}
{"variant": "KEHVPTWLQNTHVYSWDKNKKNIL", "protein stability index": 2.71}
{"variant": "KEHVPTWLQNTHVYSWPKNGKNIL", "protein stability index": 2.18}
{"variant": "KEHVPTWLQNTHVYSWPKNIKNIL", "protein stability index": 3.38}
{"variant": "KEHVPTRLQNTHVYSWPKNKKNIL", "protein stability index": 2.85}
{"variant": "KEHVPTWLQNTHVYWWPKNKKNIL", "protein stability index": 1.68}
{"variant": "KEHVPTWLQNTHVYSWPPNKKNIL", "protein stability index": 3.12}
{"variant": "KEHVPYWLQNTHVYSWPKNKKNIL", "protein stability index": 2.32}
{"variant": "KEHVPTWLQNTHVYSWPKNKKQIL", "protein stability index": 2.72}
{"variant": "KEHVPTWLGNTHVYSWPKNKKNIL", "protein stability index": 2.66}
{"variant": "KEHVPTWLQNYHVYSWPKNKKNIL", "protein stability index": 2.36}
{"variant": "KEHVWTWLQNTHVYSWPKNKKNIL", "protein stability index": 2.76}
{"variant": "KEHVPTWLQNTHVYSWPQNKKNIL", "protein stability index": 3.64}
{"variant": "KEHVPTWLQNTHVYSPPKNKKNIL", "protein stability index": 3.82}
{"variant": "KEHVPTGLQNTHVYSWPKNKKNIL", "protein stability index": 3.99}
{"variant": "KEHVPTWLQNTHVDSWPKNKKNIL", "protein stability index": 3}
{"variant": "KEHVPTWYQNTHVYSWPKNKKNIL", "protein stability index": 2.73}
{"variant": "KEHVPTWLQNTIVYSWPKNKKNIL", "protein stability index": 2.17}
{"variant": "KEHVPTWLQNTHVYSWHKNKKNIL", "protein stability index": 2.21}
{"variant": "KEHVPTWLQNTHVYSKPKNKKNIL", "protein stability index": 2.81}
{"variant": "KEHVPTWLQNTHVYSWPKNKRNIL", "protein stability index": 2.05}
{"variant": "KEHVPTWLQNTHVYSWPKNKKNIP", "protein stability index": 2.98}
{"variant": "KEHVPTWHQNTHVYSWPKNKKNIL", "protein stability index": 2.76}
{"variant": "KFHVPTWLQNTHVYSWPKNKKNIL", "protein stability index": 1.7}
{"variant": "KEHVPTWLQNTHVYRWPKNKKNIL", "protein stability index": 3.12}
{"variant": "KEHVPTWLQNPHVYSWPKNKKNIL", "protein stability index": 2.67}
{"variant": "KEHVPTWLQNTHVLSWPKNKKNIL", "protein stability index": 2.29}
{"variant": "KEHVPTWLQNTKVYSWPKNKKNIL", "protein stability index": 2.51}
{"variant": "KEHVATWLQNTHVYSWPKNKKNIL", "protein stability index": 2.66}
{"variant": "KEHVPTWLQNVHVYSWPKNKKNIL", "protein stability index": 2.52}
{"variant": "KEHFPTWLQNTHVYSWPKNKKNIL", "protein stability index": 2.07}
{"variant": "KEHVPTWLQNTHVYSWPKGKKNIL", "protein stability index": 2.56}
{"variant": "KEHVPTWLQNTHVYSWPKNKKEIL", "protein stability index": 2.64}
{"variant": "KEHVPTWLQGTHVYSWPKNKKNIL", "protein stability index": 2.07}
{"variant": "KEHVPTWLQRTHVYSWPKNKKNIL", "protein stability index": 2.09}
{"variant": "KEHVPTWLQNTHVYSWPKWKKNIL", "protein stability index": 1.4}
{"variant": "KEHVPTWLQNTHVYSYPKNKKNIL", "protein stability index": 3}
{"variant": "KEHVPTWLQQTHVYSWPKNKKNIL", "protein stability index": 2.32}
{"variant": "KEHVPTWLQNGHVYSWPKNKKNIL", "protein stability index": 2.64}
{"variant": "KEHVPTWLQNTHVYSWPENKKNIL", "protein stability index": 2.88}
{"variant": "KEHVPTWLQNSHVYSWPKNKKNIL", "protein stability index": 2.88}
{"variant": "KEHVPTWLQWTHVYSWPKNKKNIL", "protein stability index": 1.64}
{"variant": "KEHVPTWLQNTHTYSWPKNKKNIL", "protein stability index": 2.66}
{"variant": "KEHVPTWLQNTHVYSWPKYKKNIL", "protein stability index": 2.03}
{"variant": "KEHVPTWLQNTHVYEWPKNKKNIL", "protein stability index": 2.6}
{"variant": "KEHVPTWLQNTHVWSWPKNKKNIL", "protein stability index": 1.98}
{"variant": "KEHVPTWLQNTHVYSWGKNKKNIL", "protein stability index": 2.17}
{"variant": "KEHVPTWLMNTHVYSWPKNKKNIL", "protein stability index": 2.53}
{"variant": "KEHVPTWLQNQHVYSWPKNKKNIL", "protein stability index": 3.04}
{"variant": "KEHVPTWLQNTHNYSWPKNKKNIL", "protein stability index": 2.11}
{"variant": "KEHVPTMLQNTHVYSWPKNKKNIL", "protein stability index": 3.61}
{"variant": "KEHVPTNLQNTHVYSWPKNKKNIL", "protein stability index": 3.63}
{"variant": "KEHVPGWLQNTHVYSWPKNKKNIL", "protein stability index": 2.81}
{"variant": "KEHVPTWLQNTHVYSWPMNKKNIL", "protein stability index": 2.42}
{"variant": "KEHVPTWLQNAHVYSWPKNKKNIL", "protein stability index": 2.67}
{"variant": "KEHMPTWLQNTHVYSWPKNKKNIL", "protein stability index": 2.35}
{"variant": "KEHVPTWLQNTHVYSWPKNKKNPL", "protein stability index": 2.54}
{"variant": "KEHVPAWLQNTHVYSWPKNKKNIL", "protein stability index": 2.49}
{"variant": "KEHVPTWLQNTHVYSWPKNKKNKL", "protein stability index": 3.52}
{"variant": "KEHVPTWLQNTHVYSWPANKKNIL", "protein stability index": 2.66}
{"variant": "KEHVPTWLLNTHVYSWPKNKKNIL", "protein stability index": 2.29}
{"variant": "LEHVPTWLQNTHVYSWPKNKKNIL", "protein stability index": 2.56}
{"variant": "KEHVPTWLQDTHVYSWPKNKKNIL", "protein stability index": 3.02}
{"variant": "KEHVPTWLQNTHVYSWKKNKKNIL", "protein stability index": 2.31}
{"variant": "KEHVCTWLQNTHVYSWPKNKKNIL", "protein stability index": 1.96}
{"variant": "KEHVPTWLQNTHVYAWPKNKKNIL", "protein stability index": 3.19}
{"variant": "KEHVPTWLQNTHVYSWPKNWKNIL", "protein stability index": 2.07}
{"variant": "KEHVPTWLQNTHVYSWPKNKKNRL", "protein stability index": 3.74}
{"variant": "KEHVPTWLQNTHVYSWWKNKKNIL", "protein stability index": 2.1}
{"variant": "KEHVPHWLQNTHVYSWPKNKKNIL", "protein stability index": 2.29}
{"variant": "KPHVPTWLQNTHVYSWPKNKKNIL", "protein stability index": 2.25}
{"variant": "KEHRPTWLQNTHVYSWPKNKKNIL", "protein stability index": 2.69}
{"variant": "KEHVPTKLQNTHVYSWPKNKKNIL", "protein stability index": 3.34}
{"variant": "KEHVMTWLQNTHVYSWPKNKKNIL", "protein stability index": 2.27}
{"variant": "KEHVPTWLQNTHVYNWPKNKKNIL", "protein stability index": 2.21}
{"variant": "KEHVPTWLQNTHVYSWPKNKKNIQ", "protein stability index": 2.98}
{"variant": "KEHVPTWLQNTHVYSWPKNKSNIL", "protein stability index": 2.24}
{"variant": "KEHVPTWLQNTHVYSWPKNKKAIL", "protein stability index": 2.41}
{"variant": "KEHVPTWLQNTHVYSWPKQKKNIL", "protein stability index": 2.51}
{"variant": "KEHVPTWLQNTHHYSWPKNKKNIL", "protein stability index": 3.78}
{"variant": "KHHVPTWLQNTHVYSWPKNKKNIL", "protein stability index": 2.08}
{"variant": "KEHVPTWLQNTHVYSWPRNKKNIL", "protein stability index": 3.38}
{"variant": "KEHVPTWLQNTHVYSWPKIKKNIL", "protein stability index": 2.08}
{"variant": "KEHVPTPLQNTHVYSWPKNKKNIL", "protein stability index": 3.21}
{"variant": "KEHVPTWLQNTHVYSWPKNPKNIL", "protein stability index": 2.72}
{"variant": "KEHVPTWLQNTHVYTWPKNKKNIL", "protein stability index": 2.54}
{"variant": "KEHVPTWLQNTHVYSWPKNKKGIL", "protein stability index": 2.7}
{"variant": "KTHVPTWLQNTHVYSWPKNKKNIL", "protein stability index": 2.33}
{"variant": "KEHVPTWLQNTHVYSWPKKKKNIL", "protein stability index": 2.06}
{"variant": "KEHVPTWLQNTHVYSWPKNKDNIL", "protein stability index": 2.73}
{"variant": "KEHVPTWFQNTHVYSWPKNKKNIL", "protein stability index": 2.2}
{"variant": "KEGVPTWLQNTHVYSWPKNKKNIL", "protein stability index": 3.19}
